{"source": "FireProtDB (doi:10.1093/protein/10.5.575)", "proteins": {"B1": {"name": "Cytochrome b5 wild type, P00171 (protein)", "chain": "MAEESSKAVKYYTLEEIQKHNNSKSTWLILHYKVYDLTKFLEEHPGGEEVLREQAGGDATENFEDVGHSTDARELSKTFIIGELHPDDRSKITKPSESIITTIDSNPSWWTNWLIPAISALFVALIYHLYTSEN"}}, "details": "Bos taurus, pH 7, Absorbance, phosphate 0.1 M, reversible: yes, whole UniProt chain shown", "data": [{"protein": "B1", "values": [{"measurement": "denaturant midpoint (higher = more stable)", "setting": "30 °C, Urea", "value": 7.1, "unit": "M"}, {"measurement": "Tm", "setting": "Thermal", "value": 66.2, "unit": "°C"}, {"measurement": "unfolding enthalpy (van 't Hoff)", "setting": "Thermal", "value": 71.3, "unit": "kcal/mol"}]}]}
